We go through 1 substance from patent US20170173105A1, “AUTOASSEMBLING PEPTIDES FOR THE TREATMENT OF PULMONARY LEAKAGE” (3-D MATRIX, LTD., priority 2014, published 2017).

This data set can be described thus: Rheological measurements of RADA16 mixed with salts (stiffness, reversibility, gelation kinetics). The class given is physicochemical. Particulars: for gelation kinetics by ion: 0.5% RADA16; for storage modulus: (RADA)4 about 0.5 w/v percent. As for the experimental part:
In a rheological comparison of 2.5% RADA16 and 2.5% RADA16+NaCl, KCl, and CaCl2, solutions of 0.5% RADA16 mixed with 0.005, 0.05, 0.125, 0.25, 0.5, and 1 M NaCl, KCl, and CaCl2 were prepared. The anion, chloride (Cl—), was kept the same to observe the effect of the cations, sodium (Na+), potassium (K+), and calcium (Ca2+). FIG. 21 provides a basic understanding of how varying the cations of a salt solution effects the viscoelastic properties and the stiffness of self-assembling peptides. […] This should be because Ca has […] higher ionic strength than Na and K at the same molar concentrations. Therefore, influence of salts on the peptide solution is more related to their ionic strength rather than their molar concentration, as shown in FIGS. 17-18 and Table 2a-c. In some embodiments, there is a correlation between the properties of the peptide solutions with salts based on the concentration of the salts.
Rheological measurements of stiffness of 2.5% RADA16 and 2.5% RADA16+0.25 M CaCl2 was evaluated.
Rheological measurements of reversibility of 0.5% RADA16 solution with +0.125, 0.25, and 0.5 M CaCl2 were evaluated. Solutions of 0.5% RADA16 mixed with 0.125, 0.25, and 0.5 M CaCl2 were prepared. The structure of the self-assembled peptide solution were disrupted thoroughly by application of mechanical stress through vortexing and sonication. The mixtures were placed at room temperature for 48 hours to allow self-assembly to take place. […] FIG. 23a presents raw rheological data of the control peptide solution with salts and the perturbed peptide solutions with salts while FIG. 23b provides a comparison of stiffness of the control peptide solutions and the perturbed peptide solutions.
Rheological measurements of gelation kinetics of 0.5% RADA16+NaCl, KCl, and CaCl2 were evaluated. A solution of 0.5% RADA16 was prepared and gelation kinetics were observed by treatment with several cations (e.g. Na, […], K) and anions (e.g. Cl, CO3, PO4, SO4). It was determined how long it will take for the peptide mixtures to gel and how to control that gelation time by varying the cation/anion type and concentration. […] In vivo and in vitro qualitative experiments and the resulting observations were supportive of these conclusions.
Due to the success of topically added solution of NaCl gently massaged into 2.5% RADA16 increasing the burst pressure of 2.5% RADA16, other salt based solutions were completely mixed with RADA16 and their mechanical properties were measured. […] The results can be seen in FIG. 29 with respect to the storage modulus (i.e. mechanical strength) of 0.5% PuraMatrix (RADA16) mixed with NaCl, KCl, or CaCl2 at varying concentrations.

On to “Arg-Ala-Asp-Ala-Arg-Ala-Asp-Ala-Arg-Ala-Asp-Ala-Arg-Ala-Asp-Ala [PuraMatrix ®]”, for which the “mechanical properties (storage modulus) with calcium chloride compared with sodium chloride or potassium chloride” value (0.5% PuraMatrix (RADA16) mixed with salts at varying concentrations) is on record as “greater mechanical properties”. Also, the “gelation kinetics by ion” value is reported as “quickest gelation” (treatment with chlorine) and “slowest gelation” (treatment with sulfate). For the same substance, under “0.5% RADA16 with CaCl2 within the optimal salt concentration range, vortexing and sonication, 48 hours room temperature”, the reversibility after perturbation result is on record as “remained reversible”. The “stiffness with added CaCl2 compared with peptide alone” value (2.5% RADA16 vs 2.5% RADA16 with CaCl2 (0.25 M / 0.125 M printed)) was “noticeable increase in stiffness”. In addition, the storage modulus result reads like this: (calcium chloride about 0.125 M) “about 25 Pa”; (calcium chloride about 0.250 M) “about 44 Pa”; (calcium chloride about 0.500 M) “about 52 Pa”. Under “RADA16 mixed with NaCl, KCl, CaCl2 at the same molar concentrations (0.005-1 M)”, the “enhancement of stiffness by cations” value is on record as “Ca provided the best enhancement of stiffness”.
